Consider 1 molecule from patent US20100233154A1, “TARGETED BINDING AGENTS DIRECTED TO HEPARANASE AND USES THEREOF 463” (MedImmune Limited, priority 2008, published 2010).

Test [1] has as its target T1, recombinant human heparanase (Homo sapiens, UniProt Q9Y251).
T1 construct: Heparanase 8 and 50 kDa sub-units were cloned into pacGP67 as Sma 1-EcoR1 fragments; made in house; host or cells: Hi5 insect cells, baculovirus (pFastBac Dual)
T1 sequence (Q9Y251 158-543 limits assumed): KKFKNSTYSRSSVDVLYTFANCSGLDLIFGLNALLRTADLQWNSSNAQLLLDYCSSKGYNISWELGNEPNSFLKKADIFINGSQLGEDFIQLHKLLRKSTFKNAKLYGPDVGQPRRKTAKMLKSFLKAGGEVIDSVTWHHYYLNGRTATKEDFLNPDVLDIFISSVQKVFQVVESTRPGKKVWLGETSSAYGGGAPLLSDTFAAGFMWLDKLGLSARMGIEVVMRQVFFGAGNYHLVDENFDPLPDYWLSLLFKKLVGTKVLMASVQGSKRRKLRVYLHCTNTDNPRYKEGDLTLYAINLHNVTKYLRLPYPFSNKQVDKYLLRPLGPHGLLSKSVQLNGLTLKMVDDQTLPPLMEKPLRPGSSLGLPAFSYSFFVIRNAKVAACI
T1 sequence (Q9Y251 36-109 limits assumed): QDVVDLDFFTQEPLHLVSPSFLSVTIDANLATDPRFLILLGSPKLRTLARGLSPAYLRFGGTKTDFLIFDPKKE
Description: ELISA binding to directly coated recombinant human heparanase. As for the experimental part:
(§1) Titres of antibodies from Campaigns 1 and 2 were determined in an ELISA. Costar 3368 medium binding plates were coated directly with recombinant human heparanase or plates were coated with Rabbit anti-heparanase antibody (Raybiotech, Cat. IP-14-155) to capture recombinant heparanase. Directly coated heparanase was detected in three separate plates by mouse (InSight Cat. INS-26-1-0000), goat (Santa Cruz, Cat. sc26136) or rabbit (Raybiotech, Cat. IP-14-155) anti-heparanase antibodies, and quantified using appropriate secondary antibodies. Antibody captured heparanase was detected using mouse anti-heparanase (Insight Cat. INS-26-1-0000). At the end of the immunisation program, fusions were performed using mouse myeloma cells and lymphocytes isolated from the spleens and lymph nodes of the immunised mice by means of electroporation, as described in Example 2.
(§2) Initial screening to detect antibodies binding to human heparanase in both direct coating and antibody capture ELISAs as described above identified 800 hybridomas for further testing; 535 IgG2 from Campaign 1 and 2 and 265 IgG4 from Campaign 2. Enzyme inhibition assays and cross species binding to cynomolgus and murine heparanase, in an antibody capture ELISA, identifed 12 antibodies that were taken forward for sub-cloning to provide purified antibodies for further analysis. Subsequently, confirmation of activity against human heparanase (FIGS. 3 and 4) and inhibition of recombinant cynomolgus and murine heparanase activity in the HS-cryptate degradation assay (FIG. 5a-c), together with sequence analysis, identified 8 antibodies that are described in the table below.

Test [2] deals with HCT116 human colorectal tumour cells. Kind of test: FACS binding to cell surface heparanase, HCT116. The format is cell-based. The settings on record: 5 or 10 μg per ml, 2 hrs at 37° C. As for the experimental part:
Although heparanase is found as a secreted protein, a proportion of heparanase is found in conjunction with cell surface heparan sulfate. The ability of anti-human heparanase antibodies to bind to cell surface heparanase was tested in a FACS assay. HT1080 human fibrosarcoma cells, HCT116 human colorectal tumour cells and B16F10 AP3 murine melanoma cells were each seeded into 6-well plates and cultured for 48 hrs prior to the addition of anti-heparanase antibody 10E9.1 or control IgG2 antibody (Sigma Cat. No. 1504-1MG). Antibodies were added to the cells to a final concentration of 5 or 10 μg per ml and incubated with the cells for 2 hrs at 37° C. The cells were then washed with phosphate buffered saline (PBS) and harvested by incubation with trypsin. The cells were pelleted by centrifugation and resuspended in 0.5 ml PBS, 0.1% BSA containing 1/200 dilution of AlexaFluor 488 anti-human IgG. The cells were incubated for 1 hr at room temperature, washed with PBS/BSA, resuspended in PBS and analysed by FACS. […] The differences likely reflect a lower affinity for murine heparanase in addition to any differences in absolute heparanase expression.

Test [3] concerns the target T2, Recombinant Hpa1 (Homo sapiens, UniProt Q9Y251).
T2 construct: Heparanase 8 and 50 kDa sub-units were cloned into pacGP67 as Sma 1-EcoR1 fragments; made in house; host or cells: Hi5 insect cells, baculovirus (pFastBac Dual)
T2 sequence (Q9Y251 158-543 limits assumed): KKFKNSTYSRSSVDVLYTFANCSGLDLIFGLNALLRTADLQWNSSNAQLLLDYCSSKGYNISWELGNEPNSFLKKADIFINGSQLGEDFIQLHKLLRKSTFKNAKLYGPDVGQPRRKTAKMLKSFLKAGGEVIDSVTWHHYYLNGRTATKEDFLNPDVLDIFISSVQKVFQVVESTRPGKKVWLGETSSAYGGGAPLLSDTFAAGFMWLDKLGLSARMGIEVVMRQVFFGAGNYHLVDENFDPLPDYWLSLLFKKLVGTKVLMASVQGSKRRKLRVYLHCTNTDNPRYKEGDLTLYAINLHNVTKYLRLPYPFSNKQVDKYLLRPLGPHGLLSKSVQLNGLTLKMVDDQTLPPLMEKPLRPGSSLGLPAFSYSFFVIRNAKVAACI
T2 sequence (Q9Y251 36-109 limits assumed): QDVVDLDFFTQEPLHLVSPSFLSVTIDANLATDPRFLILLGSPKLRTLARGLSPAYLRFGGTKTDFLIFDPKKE
Description: Medium resolution Biacore affinity. As to conditions: purified antibody captured on CM4 chip; Hpa1 1 nM and 10 nM; 25° C. The format is binding. The protocol:
For medium resolution Biacore™ tests, cloned and purified antibodies were used. Each of three purified antibodies (10E9.1, 15A1.2, and 15A11.1) were captured onto a high-density goat anti-human antibody surface over a CM4 Biacore™ chip. Recombinant Hpa1 was diluted to the desired concentration (1 nM and 10 nM) in 10 mM HEPES, 150 mM NaCl, 0.005% tween-20, 0.1 mg per ml BSA pH7.4 (25° C.) immediately prior to injection. Data were fit globally to a 1:1 interaction model with a term for mass transport included. The resulting KD values are summarised below in Table 4.

Test [4] has as its system MCF7-Hpa1#19 xenograft. Kind of test: Subcutaneous xenograft tumour growth, MCF7-Hpa1#19. Format: in vivo, SCID mice. As to conditions: once weekly i.p.; 10E9.1 at 7.5 or 15 mg per kg. As for the experimental part: MCF7-Hpa1#19 and HCT116 tumour cells were harvested from sub-confluent cultures. A total of 5×10^6 (MCF7-Hpa1#19) or 10^7 (HCT116) tumour cells were inoculated subcutaneously into the flank of male SCID mice. HCT116 tumour cells were implanted in PBS; […] cells were implanted in PBS containing 50% matrigel.
When tumours had attained ˜200 mm^3, tumour bearing mice were randomised into treatment groups and dosed with the following; PBS; an isotype matched control IgG2 antibody, 15 mg per kg; anti-heparanase antibody 10E9.1, 7.5 or 15 mg per kg. All treatments were administered once weekly i.p. Tumour growth was measured twice per week using calipers and tumour volumes calculated according to an ellipsoid volume is formula (3.142/6×length×width×width) from measures of the largest tumour diameter and two opposing widths (FIG. 11).

The target in test [5] is T3, recombinant heparanase captured with rabbit anti-heparanase antibody (Homo sapiens, UniProt Q9Y251).
T3 construct: Heparanase 8 and 50 kDa sub-units were cloned into pacGP67 as Sma 1-EcoR1 fragments; made in house; host or cells: Hi5 insect cells, baculovirus (pFastBac Dual)
T3 sequence (Q9Y251 158-543 limits assumed): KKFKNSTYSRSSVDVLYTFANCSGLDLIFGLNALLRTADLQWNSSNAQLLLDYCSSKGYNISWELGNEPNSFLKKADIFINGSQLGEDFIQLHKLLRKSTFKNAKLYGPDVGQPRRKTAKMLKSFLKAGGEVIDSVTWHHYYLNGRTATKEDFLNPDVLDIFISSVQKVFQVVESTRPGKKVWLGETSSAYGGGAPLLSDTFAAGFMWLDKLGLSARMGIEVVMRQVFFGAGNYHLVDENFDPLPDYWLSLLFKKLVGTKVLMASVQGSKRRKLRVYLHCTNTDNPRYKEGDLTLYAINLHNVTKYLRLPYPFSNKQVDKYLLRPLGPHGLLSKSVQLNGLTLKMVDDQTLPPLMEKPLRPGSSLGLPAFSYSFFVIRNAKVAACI
T3 sequence (Q9Y251 36-109 limits assumed): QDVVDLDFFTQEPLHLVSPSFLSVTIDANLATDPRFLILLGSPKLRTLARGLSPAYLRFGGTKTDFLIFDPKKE
Description: ELISA binding to antibody-captured heparanase. The settings on record: antibody capture. The protocol: as §1, §2

B1: 10E9.1: fully human anti-heparanase monoclonal antibody, G2κ; VH SEQ ID NO 2, VL SEQ ID NO 4; ATCC PTA-9489 (antibody, listed as Homo Sapiens, V domains shown)
VH: QVQLVQSGAEVKKPGASVKVSCKVSGYSLTELSIHWVRQAPGKGLEWMGGFDPEDGEIIFAQKFQGRVTLTEDISLDTAYMEVSSLRSEDTAVYYCATEGHDSGDYVGYYYYGLDVWGQGTTVTVSS
VL: DIQMTQSPSSLSASVGDRVTITCRASQDIRNFLAWYQQKPGKLPKLLIYAASTLQSGVPSRFSGSGSGTDFTLTISSLQPEDVASYYCQSHNSVPFTFGPGTKVDIR
notes: fully human anti-heparanase monoclonal antibody, G2κ; ATCC PTA-9489
Take B1: the “Binding to direct coated heparanase” value in test [1] is given as 0.2 OD units. For the same molecule, the “Binding to cells by FACS” value in test [2] is recorded as “bind extensively”. Also, in test [3], the ka stood at 2.06e+06 M⁻¹ s⁻¹ and the kd amounted to 0.000112 s⁻¹. Also, the Tumour growth inhibition entry in test [4] is reported as “not inhibited”. Besides, in test [5], the “Binding to captured heparanase” value was 0.87 OD units.
